From publication PMC3272785

System: Nc1nc(=O)[nH]cc1F
Test: steady-state kinetics
Format: biochemical, Saccharomyces cerevisiae
Details: Zn2+

Row | Substance | Km | kcat | kcat/Km
1 | yeast cytosine deaminase (yCD) (Saccharomyces cerevisiae S288C; E64D) | 19 ± 6 mM | 0.0051 ± 0.001 s⁻¹ | 0.26 M⁻¹ s⁻¹
2 | yeast cytosine deaminase (yCD) (Saccharomyces cerevisiae S288C; E64A) | 33 ± 6 mM | 7.3e-05 ± 6e-06 s⁻¹ | 0.0022 M⁻¹ s⁻¹
